Experimental data taken from patent publication US20210145935A1.

Experiments:
[1] = target: H1N1 pseudotyped lentiviral particles (H1 and N1 from swine H1N1 A/California/04/09) (influenza A virus H1N1 A/California/04/09); assay: cell-based or functional assay
[2] = target: H3N2 pseudotyped lentiviral particles (H3 from A/Denmark/70/03, N2 from A/Texas/50/2012) (influenza A virus H3N2 A/Denmark/70/03; influenza A virus H3N2 A/Texas/50/2012); assay: cell-based or functional assay

recombinant vaccinia virus complement control protein (VCP), sequence (P68638 20-263): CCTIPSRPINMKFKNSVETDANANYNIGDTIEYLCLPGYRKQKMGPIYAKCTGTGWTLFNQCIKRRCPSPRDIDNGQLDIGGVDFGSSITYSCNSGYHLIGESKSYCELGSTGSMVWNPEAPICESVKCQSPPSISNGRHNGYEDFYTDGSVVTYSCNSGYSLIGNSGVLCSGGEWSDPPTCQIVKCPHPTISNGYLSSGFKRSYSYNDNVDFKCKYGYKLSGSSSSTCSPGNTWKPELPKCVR

**Q.** With “recombinant vaccinia virus complement control protein (VCP) (from UniProt P68638 20-263)” as the substance, how does the luciferase reporter activity of transduced MDCK cells, 40 µg/ml protein [1] read?
**A.** 45 % reduction

**Q.** What about the luciferase reporter activity of transduced MDCK cells, 40 µg/ml protein [2] of the same substance?
**A.** 30 % increase
